Laboratory results from the RNAGym collection of RNA variant scans (doi:10.1073/pnas.2313332121).
Fewer inactive variants are shown than the library holds.

B1: TPR 5TU (parent)
chain: GGAUCUUCUCGAUCUAACAAAAAAGACAAAUCUGCCACAAAGCUUGAGAGCAUCUUCGGAUGCAGAGGCGGCAGCCUUCGGUGGCGCGAUAGCGCCAACGUUCUCAACUAUGACACGCAAAACGCGUGCUCCGUUGAAUGGAGUUUAUCAUG

Variants of: B1
Assay: polymerase ribozyme fitness, log enrichment relative to wild type (log ratio); higher = more active; in vitro selection for triplet polymerase activity
Outline: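 Fitness is a logarithmic measure of how a genotype enriched relative to the wild type, with replicate averages weighted by inverse variance. The logarithm uses base 2, and enrichment came from Illumina sequencing of input and output libraries. Those libraries were PCR-built, transcribed mutants of each subunit of a heterodimeric triplet polymerase ribozyme, passed through one triplicate in vitro selection round that included frozen incubation at −7 °C, gel excision of extended constructs and streptavidin-bead capture. Genotypes were kept only if they had ≥10 input reads and ≥1 read per output.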

Row | Variant | polymerase ribozyme fitness (log ratio)
1 | GGAUCUUCUCGAUCUAACAAAAAAAACAAAUCUGCCACAAAGCUUGAGAGCAUCUUCGGAUGCAGAGGCGGCAGCCUUCGGUGGCGCGUUAGCGGCAACGUUCUCAACUAUGACACGCAAAACGCGUGCUCCGUUGAAUGGAGUUUAUCAUG [G25A A89U C95G] | -4.2
2 | GGAUCUUCUCGAUCUAACAAAAAAGACAAAUCUGCCACAAAGCUUGCGAGCAUCUUCGGAUGCAGCGGCGGCAGCCUUCGGUCGCGCGAUAGCGCCAACGUUCCCAACUAUGACACGCAAAACGCCUGCCCGGUUGACUGGAGUUUAUCAUG [A47C A66C G83C U104C G126C U130C C132G A138C] | ≤ -4.2
3 | GGAUCUUCUCGAUCUAACAAAAAAGACAAAUCUGCCACAAAGCUUGAGAGCAUCUUCGGAUGCAGAGGCGGCAGCCUUCGGUGUCGCGAUGGCGCCAACGUUCUCAACUAUGACACGCAAAACGCGUGCUCCGUUGAAUGGAGGUUAUCAUG [G84U A91G U144G] | -1.53
4 | GGAUCUUCUCGAUCUAACAAAAAAGACAAAUCUGCCACAAAGCUUGACAGCAUCUUAGGAUGCAGAGGCGGCAGGCUUCGGUUGCGCGAUAGCGCCAACGUUCUCGGCUAUGUCACGCAAAACGCGUGCUCCGUUGAAUGGAGUUUAUCAUG [G48C C57A C75G G83U A106G A107G A113U] | ≤ -4.2
5 | GGAUCUUCUCGAUCUAACAAAAAAGACAAAUCUGCCACAAAGCUUGAGAACAUCUUCGGAUGCAGAGGCGGCAGCCUUCGGUGGCGCGAUUGCGCCAACGUUCUCAACUAUGACACGCAAAACGCGUGCUCCGUUGAAUGGAGUUUAUCAUG [G50A A91U] | ≤ -4.2
6 | GGAUCUUCUCGAUCUAACAAAAAAGACAAAUCUGCCACAAAGCUUGAGACCAUCUUCGGAUGCAGAGGCGGCAGCCUUCGGUGGCGCGAUAGCGCCAACGUUCUCAACUAUGACACGCAAAACGCGUGCUCCGUUGAAUGGAGUUUAUCAUG [G50C] | -2.52
7 | GGAUCUUCUCGAUCUAACAAAAAAGACCAAUCUGCCACAAAGCUUGAGAGCAUCUUCGGAUGCAGAGGCGGCAGCCUUCGGUGACGCGAUAGCUCGAACGUUCUCAAGUAUGACACGCAAAACGCGUGCUCCGUUGAACGGACUUUAUCAUG [A28C G84A G94U C96G C108G U139C G143C] | ≤ -4.2
8 | GGAUCUUCUCGAUCUAACAAAAAAGACAAAUCAGCCACAAAGCUUGAGAGCAUCUUCGGAUGCAGAGGCGGCAGACUUCGGUGGCGCGAUAGCGCCAACGUUCUCAACUUUGACACGCAAAACGCGUGCUCCGUUGAAUGGAGUUUAUCAUG [U33A C75A A110U] | ≤ -4.2
9 | GGAUCUGCUCGAUCUAACAAAAAAGACAAAUCUGCCACAAACCUUGAGAGCAUCUUCGGAAGCAGAGGCGGCAGCCUUCGGUGGCGCGAUAGCGCUAACGUUCUCAACUAUCACACGCAAAACCCCUGCUCCGUUAAAUGGAGUUUAUCAUG [U7G G42C U61A C96U G112C G124C G126C G136A] | ≤ -4.2
10 | GGAUCCUCUCGAUCUAACAAAAAAGACAAAUCUGCCACAAAGCUUGAGAGCAUCUUCGGAUGCAGAGGCGGCAGCCUUCGGAGGCGCGAUAGCGCCAAUGUUCUCAACUAUGACACGCAAAACGCGUGCUCCGUUUAAUGGAGUUUAUCAUG [U6C U82A C99U G136U] | -3.43
11 | GGAUCUUCUCGAUCUAACAAAAAAGACAAAUGUGCCACAAAGUUUGAGAGCAUUUUCGGAUGCAGAGGCGGCGGCCGUCGGUGGCGCGAUAGCGCCAACGUUCUCAACUAUGACACGCAAAACGCGUGCUCCGUUGAAUGGAGUUUAUCAUG [C32G C43U C54U A73G U77G] | ≤ -4.2
12 | GGAUCUUCUCGAUCUAACAAAAAAGACAAAUCUGCCACAAAGCUUGAGCGCAUCUUCGGAUGCAGAGGCGGCAGCCUUCGGUGGCACGAUAGCGCCAACGUUCUCAACUAUGACACGCAAAACGCGUGAUCUGUUGAAUGGAGUUUAACAUU [A49C G86A C129A C132U U148A G152U] | ≤ -4.2
13 | GGAUCUUCUCGAUCUAACAAAAAAGACAAAUCUGCCACAAAGCUUGAGAGCAUCUUCGGAUGCGGAGACGGCAGCCUUCGGUGGCGCGAUAGCGCCAACGUUCUCAACUAUGACACGCAAAACGCGUGCUCCGUUGAAUGGAGUUUAUCAUG [A64G G68A] | ≤ -4.2
14 | GGAUGUUCUCGAUCUAACAAAAAAGACAAAUCUGCCACAAAGCUUGAGAGCAUCUUCGGAUGCAGAGGCGGCAGCCUUCGGUGGCGCGAUAGCGCUAACGUUCUCAACUAUGACACGCAAAACGCGUGCUCCGUUGAAUGGAGUUUAUCAUG [C5G C96U] | -0.763
15 | GGAUCUUCUCGAGCUAACAAAAAAGACAAAUCUGCCACAAAGCUUGAGAGCAUCUUCGGAUGCAGAGGCGGCAGCCUUCGGUGGCGCGAUAGCGCCAACGUUCUCAACUAUGACACGCAAAACGCGUGCUCCGUUAAAUGGAGCUUAUCAUG [U13G G136A U144C] | -2.04
16 | GGACCUUCUCGAUCUAACAAAAAAGACAAAUCUGCCACAAAGCUUGUGAGCAUCUUCGGAUGCAGAGGCGGCAGCCUUCGGUGGUGCGAUAGCGCCAACGUUCUAAACUAUGACAGGCAAAACGCGUGCUCCGUUGAAUGGAAUUUUUCAUG [U4C A47U C85U C105A C116G G143A A147U] | ≤ -4.2
17 | GGAUCUUCUCGAUCUAACAAAAAAGACAAAUCUGCCACAAAGCUUGAGAGCAUCUUCGGAUGCAGAGGCGGCAGCCUUCGGUGGCGCGAUAGCGCCAACGUUCUCAACUAUGACACGCAAAACGCGUGCUCCGUUGAAUGAAGUUUAUCAUG [G141A] | 0.689
18 | GGAUCUUCUCGAACUAACAUAAAAGACAAAUCUGCCACAAAGCUUGAGAGCAUCUUCGGAUGCAGAGGCGGCAGCCAUCGGUGGCGCGAUAGCGCCAACGUUCUCAACUAUGACACGCAAAACGCGUGCUCCGUUGAAUGGAGUUUAUCAUG [U13A A20U U77A] | ≤ -4.2
19 | GGAUUUUGGCGAUCUAACAAAAAAGACAAAUCUGCCACAAAGCUUGAGAGCAUCUUCGGAGGCAGAGGCGGCAGCCAUCGGUGACGCGAUAGCGCCAACGUUCUCAACUAUGACACGCAAAACGCGUGCUCCGUUGAAUGGAGUUCAUCAUG [C5U C8G U9G U61G U77A G84A U146C] | ≤ -4.2
